Experimental data taken from patent US6710030B1, “Contortrostain (CN) and methods for its use in preventing metastasis and other conditions” (University of Southern California, priority 1993, dated 2004).
“Also recorded” adds a separate entry of the source. Read-outs that look alike come from different tables or passages of the source.

Tests used:
MDA-MB-435 cells = experiment: Adhesion of MDA-MB-435 cells to immobilized ECM proteins; format: cell-based, human
Protocol: The effect of CN on binding of highly metastatic human breast cancer cells, MDA-MB-435 cell line, to ECM proteins was examined. Human fibronectin and vitronectin were immobilized in the wells of 96-well microtiter plates. […] In a variation of the above experiments, CN was immobilized. […] Referring to FIGS. 12 and 13, varying concentrations of GRGDSP (FIG. 12) or EDTA (FIG. 13) were used to inhibit binding of human mammary carcinoma cells to immobilized CN. CN was at 0.1 μg/well. The vertical line at each data point indicates the y-axis error bar. All experiments were conducted as three sets of triplicates for each data point.

[1] = system: chick chorioallantoic membrane; experiment: bFGF and VEGF induced angiogenesis in chick chorioallantoic membrane model; conditions: in vivo
Text: Significance: The function of αvβ5 has been indicated by many studies. […] Although αvβ5 participates in the initiation of cell adhesion to vitronectin, unlike αvβ3 which mediates cell migration constitutively, αvβ5 mediates migration only when activated by growth factors, such as insulin-like growth factor-1 (IGF-1), epidermal growth factor (EGF), and transforming growth factor-α (TGF-α).

T24 cells = experiment: Adhesion of T24 cells to immobilized vitronectin; format: cell-based, human
Protocol: Individual wells of 96-well plates were coated at 4° C. overnight with 100 μl of vitronectin (1 μg/well). Excess proteins were washed off with three washes of phosphate buffered saline (PBS), followed by blocking with 1% bovine serum albumin (BSA) in PBS. Aliquots (100 μl) of cells (5×10^5 cells/ml) were incubated at room temperature for 20 minutes with antibodies or contortrostatin before being applied to the coated wells. Treated cells were allowed to adhere to the wells for 30 minutes at 37° C. Unbound cells were washed off with serum-free medium. Cell adhesion was quantified either by CellTiter 96™ Aqueous Proliferation Assay kit (Promega, Madison, Wis.). Each inhibitor concentration was tested in triplicate, and assays were performed at least three times yielding identical results.

αvβ3 293 cells = experiment: Phosphotyrosine immunoblot, 293 cells expressing αvβ3; format: cell-based, human; conditions: 10 min
Protocol: Cell culture, preparation and stimulation—T24 cells were maintained in RPMI 1640 medium containing 5% fetal bovine serum, and MDA-MB-435 and 293 cells were maintained in Dulbecco's modified Eagle's medium with 10% serum at 37° C. in 5% CO2. Cells were washed with phosphate-buffered saline (PBS) and starved in the appropriate serum-free medium for 6 h at 37° C. Cells were detached by brief treatment with 0.05% trypsin/0.02% EDTA in PBS and collected by centrifugation, resuspended in soybean trypsin inhibitor (1 mg/ml in serum-free medium), and washed in 2% bovine serum albumin/serum-free medium. Cells were maintained in suspension for 1 h in 2% bovine serum albumin/serum-free medium at 37° C. with end-over-end agitation. Quiescent cells (3×10^6/ml) were treated with disintegrins or other reagents while in suspension, or were allowed to adhere to Matrigel (Becton Dickinson, Bedford, Mass.) diluted 1:100 with serum-free medium during treatment. […]
Contortrostatin- induced signaling events are mediated by the αvβ3 integrin—The integrinbinding specificities of echistatin and flavoridin have been determined previously (Niewiarowski et al., supra; and Pfaff, M., McLane, M. A., Beviglia, L., Niewiarowski, S., and Timpl, R. (1994) Cell Adhesion and Communication 2, 491-501). […]

OVCAR-5 cells = experiment: Phosphotyrosine immunoblot, OVCAR-5 cells; format: cell-based, human; conditions: data not shown
purified (GP)IIb/IIIa = purified (GP)IIb/IIIa (Homo sapiens, UniProt P05106+P08514); experiment: Fibrinogen-(GP)IIb/IIIa ELISA; format: binding
Text: Several lines of evidence indicate that CN inhibits platelet aggregation by binding specifically to the (GP)IIb/IIIa integrin receptor. […] Additionally, the partial amino acid sequence of CN indicates considerable similarity with other disintegrins known to bind to (GP)IIb/IIIa. Finally, CN blocks 7E3 binding to (GP)IIb/IIIa. 7E3 is a murine monoclonal antibody that specifically binds to (GP)IIb/IIIa, thereby inhibiting human and canine platelet aggregation [Coller, B. S. et al., J. Clin. Invest. 72:325 (1983)].

B1: contortrostatin (protein)
chain: DAPANPCCDAATCKLTTGSQCADGLCCDQCKFMKEGTVCRRARGDDLDDYCNGISAGCPRNPFHA
- effect on adhesion to human or rat type I collagen (MDA-MB-435 cells): minimal effect
- IC50 (MDA-MB-435 cells; immobilized human fibronectin, read-out: IC50 for adhesion to fibronectin): 18 nM
- IC50 (MDA-MB-435 cells; immobilized human vitronectin, read-out: IC50 for adhesion to vitronectin): 1.5 nM
- angiogenesis induced by bFGF and VEGF [1]: inhibits angiogenesis
- adhesion of T24 cells to vitronectin, in words (T24 cells; FIG. 19 A, B): inhibits adhesion of T24 completely
- inhibition of adhesion of T24 cells to vitronectin (T24 cells; at a concentration less than 10 μg/ml): 100%
- tyrosine phosphorylation (αvβ3 293 cells): robust induction of tyrosine phosphorylation; also recorded: increased tyrosine phosphorylation
- tyrosine phosphorylation (OVCAR-5 cells): do not show significant enhancement of tyrosine phosphorylation
- (GP)IIb/IIIa binding to immobilized fibrinogen (purified (GP)IIb/IIIa): effectively blocks (GP)IIb/IIIa binding
